From the DeepSol protein solubility set

Test: soluble on expression in E. coli; label from the status in PepcDB or PDB records

Sequence | soluble on expression in E. coli
MRLTSKGRYAVTAMLDVALNSEAGPVPLADISERQGISLSYLEQLFSRLRKNGLVSSVRGPGGGYLLGKDASSIAVGEVISAVDESVDATRCQGKGGCQGGDKCLTHALWRDLSDRLTGFLNNITLGELVNNQEVLDVSGRQHTHDAPRTRTQDAIDVKLRA | soluble
MRMMEAEIKDQRNNLQALKNSQRLSVRGSIQSNMSSRTDGILQRRLDETERKLAKTSAELKAKDEKLKKETASLEASREAHRLLQEESNKSKVSVMRLTFKLNRITHESVKEQAVLKKKLLDCETRLATYSECLVCYQKFDENTRIPRVMDCGHTLCDFCINQIVKMAGCYSATCPFDRVRIFGFGKSRRLEDRPCNRFIMK | not soluble
MRNEMHLQFSARSENESFARVTVAAFVAQLDPTMDELTEIKTVVSEAVTNAIIHGYNNDPNGIVSISVIIEDGVVHLTVRDEGVGIPDIEEARQPLFTTKPELERSGMGFTIMENFMDEVIVESEVNKGTTVYLKKHIVKSKRYLEGSSF | soluble
MRNFDLSPLYRSAIGFDRLFNHLENNQSQSNGGYPPYNVELVDENHYRIAIAVAGFAESELEITAQDNLLVVKGAHADEQKERTYLYQGIAERNFERKFQLAENIHVRGANLVNGLLYIDLERVIPEAKKPRRIEINLEHHHHHH | soluble
MRNIEEDLHKNEEEDPAPEVDDTDIPVDPLLTLLYIRHTLTSPWSSSEERDTAKAAMMEEMEKHNMAPYIRLVCEALGVPLDESKLAEMDAINAKKVAAFDARLKDAVDNLGDTEVRDVLQAKCDHYARIGDLEMCMKTNEECAAKTLATGPKLDLYFQRIRLGIAFSDNDIAAKGITDAHRLMKDGDWERRNRLRVYEGIYHVFIRDFQRGSTLLLDSITTFAAGELLTFQDFVFITVVASLPVLSRPELRKRIVYSPEVNRTGVDDVRELVNSIYDCQYNKVFPNLEVVCQHLRKVVYLSPHVSYFFREMRVLIFTQFLDSYSSVTLESMGAAFGIPVPALDSMLCTLISNERIACKVDRVDGSVETYRGDTTNFDYHRIVKSGDLLLNRIQKLSRLVDM | soluble
MRNLVKYAGIGLLVMGLAACDNNDTKASAESAAAESQASGQPISLMDGKLSFSLPADMTDQSGKLGTQANNMHVYSDPTGQKAVIVIVGDNTDEALPVLANRLLEQQRSRDPQLQVVTNKSIELKGHTLQQLDSIISAKGQTAYSSIVLGKVDNQLLTIQVTLPADNQQKAQTTAENIINTLVIK | not soluble
MRNPIMVTTEVAGEPPGQGRKWAAHGTMAAPRVHTDYHPGGGSACSSVKVRSHVGHTGVFFFVDQDPLAVSLTSQSLIPPLIKPGLLKAWGFLLLCAQPSANGHSLCCLLYTDLVSSHELSPFRALCLGPSDAPSACASCNCLASTYYLLEHHHHHH | not soluble
MRNTKGNELEDREILASSLHANGISETVLLQIWNATEENLDKLVSALNVYKKGKISITWHEIMTVKENNEAIIPFSVAVQNIYGAFKNIDEELAELARNAIESGWVDAEPRENKPPGGFCAPFFSEKESRISMRYDGSIDSVRILAHELGHAWHFYNMSFEQSSSFLDDYLPMSTAESASIFFETLLINYLIQTTDSIDIKKSLLSWKIRNCFNYVMAIRASFEFEKNFYEKCKESPISADEIEKISIVAQEKAYGNALSEYQPFVWMKYVQFYIADVPFYNYPYTFGYLVSFSLLEIAKENKSTFHSKFKEFLRENGKAPVEELIKKHFEIDITSYAFWDKAFKQISKDIDAYLRLI | not soluble
MRPTVVSMGKHFGNLGKMYGEHRFALAPNEQKAYKGFFDQAFVKTFKTYVWDQWYYYIPQTIGAYLLYDWAKKTNVAANRKNPADFANDQ | not soluble
MRQKTIREISVAWKEYKQPYVKQSTMAAYVLILENHILPNFGESDTLHEQAVQDFVLRKIENGLSVKSVKDILIVLKMVMKFGVKNEWMDYQEWDIKYPSSSTTKELEVLSVANHKKILNHIQNHFSFTGLGIYISLCTGLRIGEVCALKWSDINVSEGTITVNRTIERIYIIDGTKKHTELVINTPKTQNSCREIPMTKELLAMVKPLKKVVNEDFYVLTNDEYPTEPRTYRNYYGKLM | not soluble
MRRVTEAAIPDNDGDEQPPVIPRYDPTSNFDAQRAQQQHPQSRPVYSTPAQMIRTTQPGGVKHNVILMKASDGTQKMVLKPGQFPPGTVISTGQRVVPYRQPTAVQQRQLYTATPGTRVVRIPNANGGAPRQQDHQVMRRVVQASGPRAMEYMDDQGTPPPGQQVRYVLQGGNSGTPNVNPPKVSSRGGPRGGLTMQMVQQQQQHNPVLDVMFSQVCRWDRQYGWSKTHVKRARQKNDSDKMHLRKFRMNQRELLITDHMERLKKEINKRRTRMENEAEQQCGLLTPWRKARARPHRAAKPKAEVKKEVINPADITLGGDTYDYVKEQKPTESIATNVSRRRRTSANLSKSEDDRDKPESQSTAPKSKERRTSEPPASHVAFHTPGSATPHDINLSIEHCTCQKIFDASKLYIQCELCARWYHGDCVGVAEQTILGLEHWSCEECIEEQERVKDQPALYCVCQKPYDDTKFYVGCDSCQGWFHPECVGTTRAEAEQAADYNCPACTREAEGYESEASDVSGSSRVSVQLTRADYTHVFELLELLLEHRMSTPFRNPVDLNEFPDYEKFIKKPMDLSTITKKVERTEYLYLSQFVNDVNQMFENAKTYNPKGNAVFKCAETMQEVFDKKLIDVREQMTARQQMLLLATAQQQDPMSSIRKRVQSESQRTVDSLDIDSDQLLPLDANLMRLYDF | not soluble
MRSELCCCRAVKRAAPEESIEEDDSYEDSDLEEGGSSYDEGTVDSESSAEDQEDKDVPVSEKKKRKLPSDVTEGKTVFIRNLSFDSEEEALGEVLQQFGDLKYVRVVLHPDTEHSKGCAFAQFMTQEAAQKCLAAASLEAEGGGLKLDGRQLKVDLAVTRDEAAKLQTKKVKKPTGTRNLYLAREGLIRAGTKAAEGVSAADMAKRERFELLKHQELKNQNIFVSQTRLCLHNLPKAVDDKQLRKLLLEATRGEKGVRIKECRVMRDLKGVHGKMKGQSLGYAFAEFQKHEHALRALRHFNNNPEIFGSQKRPIVEFSLEDRRKLKVKELRIQRSLQKMESKPVTSKPQKEQKEVGKDKQQKAVQSATQDQSKAPGEQKGKAGSTSWTGFQTKAEVEQVELPDGKKRRKVLALPSHRGPKIRLRDKGKVKSLPSRKPKPQMGQRKQKKQQLASSVQAPKRKAKENKAEARFNQLVEQYKQKLLGPSKGAPLMKRSKWFDS | soluble
MRSFIIFSTLLVILVQCGYPVAENSYPTTPSYPTPPPSYPTPKKYPVAPTYPSTPSYSAPPAQSAYSSSDNQEDTESESVTGAASTSEYRKRAKARTAHNRQFQRRALQPIKRFQQKKQ | not soluble
MRSFIISSALLVILVQCGYPVAENSYPTTPSYPTPPPSYPTPKKYPVAPTYPSPPAYAQKPSYSAPPPPAPSVYSSSSFSDNEVASDSEYTTASPNSEYRKRAKARTAHNRKFQRRALTPIRRFQQKKQ | not soluble
MRVAIFTDTFTPQVNGVAKTLERLTRYFQKENIAYSVFAPQHTAEDNFVANVNKMRSIPLTILYPECRFSFPTPRIKRELLSFKPDIIHIATPFNMGLCGLYYAKKLNIPVVGSYHTDFDAYLRYYKIEFLSNMLWNYLKWFHSHMQKNFVPSPETLHQLKHKGFQALSIWGRGVDCNLFHPAYNTDLFRKKYNITAKYVLSYIGRIAPEKDIDTLQNLIVKSTHTRNDIHWLIAGDGPLATNLRETVPQTNVTFTGYLQGGDLAEAYACSNLMVFPSATETFGNVVLESLACGTPVIGANSGGVKNIITDGKTGVLCPPKNEDAFLSSIYFLLQNEEKLKQMGIAALSYAKSKSWDEIFRGLLNEYEEVLQHNASELLALEHHHHHH | not soluble
MRVASVRWFTPPTRPRPAPLFFGQERALRALEAAFLHRGHGYLVGPSGLGKRARLLAFLEGRAFPKEELVYLPLGEEAFPLLLPEGEGRALVEGVEALFAEFTPGLFREKGFLYAKNLVESRHEREAEALLQTLAQEAKAHGFALAEEEGGFTLTGQGPLPPELSAKLEETVLAYVEVRQRAQAEVAALRRSFAERLLQPRVEGLKARFPEAARYLDWLLESLLRAAALEEEVEGEALLPRLLVEGGTRVVYEPNPTPERLFGHLEYEVREGVLTTHLGLLRPGALMRAAGGVLVLEAHRVLELGSYPLLKRSLATGEIEPLAPRPEVRGPRLQPAPLKAQVFLVGPPEVIALLEEDEEFLELFPFRVEFNPEMPYTEAHVAHLGGFLEAQGVRLLPEGLAALADEARRMAGHQERLDARIYRLLDLAREAARYQDPVGREGVERALKAREDRFALEQELFLKDVEEGVVALEVTGERVGEVNGLVVLEGPLPTGRPVRITAQAGPGREGILSIDREVGLGGQVFHKAVLTLAGYLRGTYAQLGALSATVSLVFEQSYGSLEGDSAGLAELLAVLSAISGLPLRQDLAVTGAVDQTGRVLAVGRVAEKVEGFFRVCQTLGLTGTQGVVLPKANLPHLTLRREVVEAVEEGVFHLFAVEEVDEAVELLFGRRAYWVHEKVREALEHFQKLENGDGEKG | soluble
MRVEIIFLGCGGGRWATITQKKATGGFRIHTNELRMHVDPGPGAIVRLNELKISPWRTNALFISHCHPDHYTDGEIIVEAITQGMTKKRGVFLGSLSVVEGFGEYEYVVSKYHQSKLEEVRVLYPGDSAELYDTTIKATHTKHGDPFGIGFRLSTIYGDIGYTSDTEFIPQLIEDFDGVRILIANIVRKKNERIKGHLCSNDAIDLINSMNKKPELLIMNHMGVKMTNPQIEAEYISQNTGIEVIPARLGLKVELLNGKYKYQLIKLEHHHHHH | soluble
MRVELFNPSIKKIIVKLSQLKGLWIVQLNLSKNRLSEKKFTDLAVLLSMLKAFGVTYLNLHFNNLGQKTGTELVALFKILKDSGISRLSLSANELYQKTGTELATLLTALSDSDIIQLDLSCNWLGQRQDAELIELFKAWSSTPIIDLDLTNNDLGKKSGIVLSEMFRALKVSSISHLGLRNNDLYQRTGAEFSSLLSAIKDSPVTHLDLSDNGLHLMVAAAFETLFDALKDSSVTHLNLCRNGIGHLDMFQMTAMFCSLQCTGVTHLDLGENSLELMTAEELAAIFQVFKDSRLIHLGLNDSYLNNRTTEDLHLIFNALPANIATIKLSLEELTEMSSEQRQTIQRRFPRAEQVILVNNMEGRELNPSLSLGDANVYRRLGFVGVSPLSLAGLASFFVASNNLRFAREVQKLLPDEVTERIVKNILG | not soluble
MRVFKTKLIRLQLTAEELDALTADFISYKRDGVLPDIFGRDALYDDSFTWPLIKFERVAHIHLANENNPFPPQLRQFSRTNDEAHLVYCQGAFDEQAWLLIAILKPEPHKLARDNNQMHKIGKMAEAFRMRF | soluble
MRVGIVGAGPAGVAAAVFLRRYNVHVTVFEKNRVGGLLRNAHLVENIPVLPPASGEEICKTLEKRLFESGAELIWEEVVKVENEKILTEREIHSFDYVIVASGTIPRRIPEFEVSEKVVYEFIDLPEFEKLAIYGAGDAAFDSALNALVRGKEVHLFNRGSRIRALPLLVERAKKYEKFYYHERCPILKVEEESKMVKLKTEHGVFTFDALLLSVGRLPNTSFVEPGERNFIVGDARGGFRQVSIAMGSAIETAMEILRREGTVSATLPLKEGLLNPNGEHQAG | soluble
